# Patent US20210340516A1, “COMPOSITIONS CONTAINING ARGINASE 1 FOR THE TREATMENT OF NEUROVASCULAR AND RETINAL VASCULAR DISORDERS” (Augusta University Research Institute, Inc., priority 2020, published 2021)
# Test system: bone marrow-derived macrophages (BMDMs)
# Test: PEG-A1 intracellular uptake by bone marrow-derived macrophages (anti-PEG Western blot)
# Format: cell-based, mouse
# Settings: BMDMs treated overnight, washed with PBS
# Experimental: BMDMs: Bone marrow-derived macrophages (BMDMs) were freshly isolated from WT mice and differentiated in culture as described in Fouda, A Y, et al., Cell death & Disease, 9:1001 (2018). To determine PEG-A1 intracellular uptake by macrophages, BMDMs were treated overnight with PEG-A1 or vehicle and then washed several times with phosphate buffered saline (PBS) before collection in RIPA buffer for Western blotting.
# Previous studies have shown that myeloid specific A1 deletion using the LysM cre mice leads to increased neurodegeneration in the retinal IR model (Fouda, A Y, et al., Cell death & Disease, 9:1001 (2018)). […] To test the effect of possible neuronal A1 deletion on the previously reported IR outcome in these mice, control and myeloid-specific A1 KO retina explants were subjected to OGD/R (3 hours/21 hours) (FIG. 21A). The explant model excludes any effects due to infiltrating myeloid cells. […] To further test if macrophage can incorporate PEG-A1, BMDMs were treated with PEG-A1 or vehicle overnight and then washed with PBS several times before Western blotting.
molecule,measurement,value
"PEG-A1: recombinant human arginase (rhArg) covalently attached to methoxy polyethylene glycol (mPEG-SPA; MW 5,000) via succinamide propionic acid (SPA) linker (protein, UniProt P05089 1-322, looked up, mPEG-SPA 5 kDa conjugate, recombinant human arginase (rhArg) covalently attached to methoxy polyethylene glycol (mPEG-SPA; MW 5,000) via succinamide propionic acid (SPA) linker) Arginase-1: MSAKSRTIGIIGAPFSKGQPRGGVEEGPTVLRKAGLLEKLKEQECDVKDYGDLPFADIPNDSPFQIVKNPRSVGKASEQLAGKVAEVKKNGRISLVLGGDHSLAIGSISGHARVHPDLGVIWVDAHTDINTPLTTTSGNLHGQPVSFLLKELKGKIPDVPGFSWVTPCISAKDIVYIGLRDVDPGEHYILKTLGIKYFSMTEVDRLGIGKVMEETLSYLLGRKKRPIHLSFDVDGLDPSFTPATGTPVVGGLTYREGLYITEEIYKTGLLSGLDIMEVNPSLGKTPEEVTRTVNTAVAITLACFGLAREGNHKPIDYLNPPK",anti-PEG band in macrophage cell lysate (intracellular uptake),strong band
